For experiment [1], the target named is T1, CD74 (human, UniProt P04233 1-296).
T1 construct: whole, on cells; Endogenous antigen of human tumor cell lines; measured on the surface or, after permeabilization, surface and cytoplasmic; also called invariant chain; Ii
T1 sequence (looked up): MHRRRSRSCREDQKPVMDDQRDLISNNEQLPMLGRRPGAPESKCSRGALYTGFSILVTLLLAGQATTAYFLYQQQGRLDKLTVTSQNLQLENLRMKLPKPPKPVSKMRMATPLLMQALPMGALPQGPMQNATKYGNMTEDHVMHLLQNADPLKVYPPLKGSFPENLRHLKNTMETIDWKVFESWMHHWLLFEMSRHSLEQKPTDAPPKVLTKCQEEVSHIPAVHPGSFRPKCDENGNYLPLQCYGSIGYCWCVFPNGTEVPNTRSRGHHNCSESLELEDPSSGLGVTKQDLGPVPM
The experiment is described as follows: cell-based or functional assay.

Experiment [2] addresses T1, CD74. As to the kind of experiment: cell binding to antigen-positive cells (cell line not stated).
Another experiment addresses CD22 (human) (UniProt P20273). The experiment is described as follows: cell-based or functional assay.
For experiment [3], the target named is Human trophoblast cell-surface antigen (TROP-2) (human) (UniProt P09758). As to the kind of experiment: cell-based or functional assay.
Experiment [4] shares this target. The experiment is described as follows: cell binding assay on TROP-2-expressing cells.
Experiment [5] shares this target. The experiment is described as follows: flow cytometry, surface of NCI-N87 cells.
For experiment [6] the target is unchanged. As to the kind of experiment: FACS on Calu-3 cells; background 4.7.
Experiment [7] shares this target. The experiment is described as follows: FACS on PC-3 cells; background 5.5.
Experiment [8] shares this target. As to the kind of experiment: FACS on BxPC-3 cells; background 3.1.
Experiment [9] shares this target. As to the kind of experiment: FACS on Capan-1 cells.
For experiment [10] the target is unchanged. As to the kind of experiment: FACS on Capan-1 cells; background 5.0.
Experiment [11] has the same target. The experiment is described as follows: FACS on PC-3 cells.
The target is the same in experiment [12]. As to the kind of experiment: FACS on Calu-3 cells.
Experiment [13] shares this target. The experiment is described as follows: FACS on COLO 205 cells; background 4.5.
The target is the same in experiment [14]. The experiment is described as follows: FACS on SK-MES-1 cells; background 3.5.
Experiment [15] shares this target. As to the kind of experiment: FACS on COLO 205 cells.
For experiment [16] the target is unchanged. As to the kind of experiment: FACS on BxPC-3 cells.
Experiment [17] has the same target. The experiment is described as follows: FACS on SK-MES-1 cells.
For experiment [18] the target is unchanged. The experiment is described as follows: flow cytometry, surface of Capan-1 cells.
Experiment [19] deals with T1, CD74. The experiment is described as follows: flow cytometry, surface CD74 on NCI-N87 cells. (In general: A flow cytometer gives signals particle by particle.)
Experiment [20] concerns the target T1, CD74. The experiment is described as follows: flow cytometry, surface and cytoplasmic CD74 in permeabilized HuH-7 cells.
The target in experiment [21] is T1, CD74. The experiment is described as follows: flow cytometry, surface and cytoplasmic CD74 in permeabilized Hs746T cells.
Experiment [22] deals with T1, CD74. As to the kind of experiment: flow cytometry, surface and cytoplasmic CD74 in permeabilized A-375 cells.
Experiment [23] addresses T1, CD74. As to the kind of experiment: flow cytometry, surface CD74 on Raji cells.
Experiment [24] addresses T1, CD74. The experiment is described as follows: flow cytometry, surface CD74 on HuH-7 cells.
Experiment [25] deals with T1, CD74. The experiment is described as follows: flow cytometry, surface and cytoplasmic CD74 in permeabilized NCI-N87 cells.
In experiment [26] the target is T1, CD74. The experiment is described as follows: flow cytometry, surface CD74 on A-375 cells.
Experiment [27] addresses T1, CD74. The experiment is described as follows: flow cytometry, surface and cytoplasmic CD74 in permeabilized Hep-G2 cells.
The target of experiment [28] is T1, CD74. As to the kind of experiment: flow cytometry, surface and cytoplasmic CD74 in permeabilized Raji cells.
For experiment [29], the target named is T1, CD74. The experiment is described as follows: flow cytometry, surface and cytoplasmic CD74 in permeabilized Capan-1 cells.
Experiment [30] has as its target T1, CD74. The experiment is described as follows: flow cytometry, surface CD74 on Capan-1 cells.
For experiment [31], the target named is T1, CD74. As to the kind of experiment: flow cytometry, surface CD74 on Hep-G2 cells.
The target in experiment [32] is T1, CD74. As to the kind of experiment: flow cytometry, surface CD74 on Hs746T cells.

Sequence of Human trophoblast cell-surface antigen (TROP-2) (human) (P09758 27-323): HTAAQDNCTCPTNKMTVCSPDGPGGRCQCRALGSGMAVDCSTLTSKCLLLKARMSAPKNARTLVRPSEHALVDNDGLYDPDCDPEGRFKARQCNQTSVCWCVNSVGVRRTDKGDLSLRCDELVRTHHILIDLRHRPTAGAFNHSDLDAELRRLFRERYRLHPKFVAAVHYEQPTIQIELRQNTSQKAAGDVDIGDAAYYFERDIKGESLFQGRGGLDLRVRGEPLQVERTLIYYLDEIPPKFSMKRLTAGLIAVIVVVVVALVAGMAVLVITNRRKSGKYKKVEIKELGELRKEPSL

As usually defined, the Kd is the concentration at which binding is half-saturated. A higher Kd goes with lower affinity. As for milatuzumab-CL2E-SN-38 (antibody), the in vitro cytotoxicity (MTS assay), potency against free SN-38 in 4 solid tumor cell lines (fold lower potency than free SN-38) in the experiment with CD74 [1] lay within 7 to 16. This molecule also came in with a Kd with CD74 [2] of 0.8 nM.
Molecule Emab-CL2E-SN-38 (antibody) registered an in vitro cytotoxicity (MTS assay), potency against the nonbinding control conjugate with CD22 (human) of 2 fold.
Molecule milatuzumab-CL2A-SN-38 (antibody) gave a Kd in the experiment with CD74 [2] of 0.59 nM.

B1: hRS7-CL2A-SN-38 (antibody, INN chains, looked up, V domains shown, part only)
VH: QVQLQQSGSELKKPGASVKVSCKASGYTFTNYGMNWVKQAPGQGLKWMGWINTYTGEPTYTDDFKGRFAFSLDTSVSTAYLQISSLKADDTAVYFCARGGFGSSYWYFDVWGQGSLVTVSS
VL: DIQLTQSPSSLSASVGDRVSITCKASQDVSIAVAWYQQKPGKAPKLLIYSASYRYTGVPDRFSGSGSGTDFTLTISSLQPEDFAVYYCQQHYITPLTFGAGTKVEIK
modifications: SN-38 via CL2A linker (sacituzumab govitecan)
Consider B1, for which, in [3], the ADC/free SN-38 ratio (IC50, in vitro cytotoxicity), Calu-3 came out at 1.39 and the ADC/free SN-38 ratio (IC50, in vitro cytotoxicity), SK-MES-1 turned out to be 2.69. Besides, the Kd in experiment [4] was determined as 1.2 nM.

B2: hRS7-CL2-SN-38 (antibody, INN chains, looked up, V domains shown, part only)
VH: QVQLQQSGSELKKPGASVKVSCKASGYTFTNYGMNWVKQAPGQGLKWMGWINTYTGEPTYTDDFKGRFAFSLDTSVSTAYLQISSLKADDTAVYFCARGGFGSSYWYFDVWGQGSLVTVSS
VL: DIQLTQSPSSLSASVGDRVSITCKASQDVSIAVAWYQQKPGKAPKLLIYSASYRYTGVPDRFSGSGSGTDFTLTISSLQPEDFAVYYCQQHYITPLTFGAGTKVEIK
modifications: SN-38 via CL2 linker
With B2, in experiment [4], the Kd worked out at 1.2 nM.

B3: Humanized RS7 IgG (antibody, INN chains, looked up, V domains shown, part only)
VH: QVQLQQSGSELKKPGASVKVSCKASGYTFTNYGMNWVKQAPGQGLKWMGWINTYTGEPTYTDDFKGRFAFSLDTSVSTAYLQISSLKADDTAVYFCARGGFGSSYWYFDVWGQGSLVTVSS
VL: DIQLTQSPSSLSASVGDRVSITCKASQDVSIAVAWYQQKPGKAPKLLIYSASYRYTGVPDRFSGSGSGTDFTLTISSLQPEDFAVYYCQQHYITPLTFGAGTKVEIK
modifications: IgG1
As for B3, the figures for the MFI in experiment [5] and in [18] were 795 and 237, respectively. Moreover, the Median fluorescence in experiment [6] was determined as 282; in experiment [7] it was 46.2; in [8], 26.4; in [10], 100; in experiment [13], 142; in [14] it was 44. Moreover, the Percent positive stood at 94.2% in experiment [9]; 73.6% in experiment [11]; 99.6% in experiment [12]; 99.5% in experiment [15]; 98.3% in experiment [16]; 91.2% in experiment [17].

B4: Milatuzumab (antibody, V domains shown)
VH: QVQLQQSGSELKKPGASVKVSCKASGYTFTNYGVNWIKQAPGQGLQWMGWINPNTGEPTFDDDFKGRFAFSLDTSVSTAYLQISSLKADDTAVYFCSRSRGKNEAWFAYWGQGTLVTVSS
VL: DIQLTQSPLSLPVTLGQPASISCRSSQSLVHRNGNTYLHWFQQRPGQSPRLLIYTVSNRFSGVPDRFSGSGSGTDFTLKISRVEAEDVGVYFCSQSSHVPPTFGAGTRLEIK
For B4, the “MFI Ratio hLL1:bkgd” value with CD74 [19] amounted to 1.3; with CD74 [20], 28.5; in the experiment with CD74 [21], 28.8; with CD74 [22], 30.8; in the experiment with CD74 [23], 19.6; with CD74 [24], 1.6. Moreover, the “MFI Ratio hLL1:bkgd” value was 36.7 in the experiment with CD74 [25]; 5.3 with CD74 [26]; 31.2 with CD74 [27]; 28.6 in the experiment with CD74 [28]; 49.6 with CD74 [29]; 1.8 with CD74 [30]. For the same molecule, the “MFI Ratio hLL1:bkgd” value in the experiment with CD74 [31] came out at 1.5; in the experiment with CD74 [32] it was 2.1. In the experiment with CD74 [2], this molecule gave a Kd of 0.77 nM.

The values are drawn from patent EP3024460B1 (Immunomedics, Inc., dated 2020).
